Test results from patent US20240009242A1 (STARKAGE THERAPEUTICS, published 2024).
Numbering of substitutions follows the chain as printed. Names and notes keep the numbering of the source. Each block holds one binder with its values, some of them ahead of it. Ends that are not written are not given here.

Columns and labels:
[1] = molecular target: human DPP4 on the surface of fibroblasts (human) (UniProt P27487); test: flow cytometry on IPF human lung fibroblasts; 0.5 µg per test; anti-6xHis tag PE secondary
[2] = molecular target: human DPP4 on the surface of fibroblasts (human) (UniProt P27487); test: flow cytometry on Wi-38 fibroblasts (PDL<20); 0.5 µg per test; anti-6xHis tag PE secondary
[3] = molecular target: human DPP4 on the surface of fibroblasts (human) (UniProt P27487); test: flow cytometry on COPD human lung fibroblasts; 0.5 µg per test; anti-6xHis tag PE secondary
[4] = molecular target: human DPP4 on the surface of fibroblasts (human) (UniProt P27487); test: flow cytometry on untreated GM21808 fibroblasts; 0.5 µg per test; anti-6xHis tag PE secondary
[5] = molecular target: human DPP4 on the surface of fibroblasts (human) (UniProt P27487); test: flow cytometry on NHLF (normal human lung fibroblasts); 0.5 µg per test; anti-6xHis tag PE secondary
[6] = molecular target: human DPP4 on the surface of fibroblasts (human) (UniProt P27487); test: flow cytometry on GM21808 fibroblasts treated with etoposide; 0.5 µg per test; anti-6xHis tag PE secondary
[7] = molecular target: T1, human DEP1 on the surface of fibroblasts (human) (UniProt Q12913); test: flow cytometry on IPF human lung fibroblasts; 0.5 µg per test; anti-6xHis tag PE secondary
T1 sequence: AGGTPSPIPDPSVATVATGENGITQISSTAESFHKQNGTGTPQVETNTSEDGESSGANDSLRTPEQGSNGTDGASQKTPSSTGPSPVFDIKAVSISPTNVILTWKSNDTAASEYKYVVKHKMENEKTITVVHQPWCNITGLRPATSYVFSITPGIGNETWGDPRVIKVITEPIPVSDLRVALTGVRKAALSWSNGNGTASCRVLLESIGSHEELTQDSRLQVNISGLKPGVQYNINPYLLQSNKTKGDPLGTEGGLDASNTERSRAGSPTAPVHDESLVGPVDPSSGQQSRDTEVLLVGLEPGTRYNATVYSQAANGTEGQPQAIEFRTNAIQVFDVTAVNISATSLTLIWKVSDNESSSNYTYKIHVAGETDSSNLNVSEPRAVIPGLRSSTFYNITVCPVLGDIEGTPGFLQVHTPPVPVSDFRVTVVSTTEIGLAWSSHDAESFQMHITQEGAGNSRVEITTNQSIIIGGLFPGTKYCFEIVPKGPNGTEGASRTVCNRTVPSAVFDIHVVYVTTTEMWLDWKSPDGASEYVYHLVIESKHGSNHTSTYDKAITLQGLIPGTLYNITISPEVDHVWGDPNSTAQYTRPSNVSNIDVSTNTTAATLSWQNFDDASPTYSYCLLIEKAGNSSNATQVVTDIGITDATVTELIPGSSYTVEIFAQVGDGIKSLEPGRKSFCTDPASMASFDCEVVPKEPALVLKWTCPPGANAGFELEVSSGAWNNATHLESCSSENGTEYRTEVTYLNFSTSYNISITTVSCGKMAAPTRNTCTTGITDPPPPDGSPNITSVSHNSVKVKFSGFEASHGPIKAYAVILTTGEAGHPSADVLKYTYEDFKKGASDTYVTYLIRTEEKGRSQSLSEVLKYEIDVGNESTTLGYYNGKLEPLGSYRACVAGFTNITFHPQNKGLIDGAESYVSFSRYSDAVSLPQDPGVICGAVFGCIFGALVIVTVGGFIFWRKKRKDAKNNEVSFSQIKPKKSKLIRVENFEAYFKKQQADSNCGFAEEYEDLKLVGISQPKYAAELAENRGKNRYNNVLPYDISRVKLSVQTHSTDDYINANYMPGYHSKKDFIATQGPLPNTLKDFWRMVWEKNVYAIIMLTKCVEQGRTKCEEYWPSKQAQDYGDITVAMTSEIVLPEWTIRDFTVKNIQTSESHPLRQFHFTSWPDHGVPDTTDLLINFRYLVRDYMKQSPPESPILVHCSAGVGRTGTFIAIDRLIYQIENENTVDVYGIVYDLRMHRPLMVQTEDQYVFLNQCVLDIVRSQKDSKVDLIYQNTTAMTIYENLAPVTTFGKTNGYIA

[8] = molecular target: T1, human DEP1 on the surface of fibroblasts (human); test: flow cytometry on Wi-38 fibroblasts (PDL<20); 0.5 µg per test; anti-6xHis tag PE secondary
[9] = molecular target: T1, human DEP1 on the surface of fibroblasts (human); test: flow cytometry on COPD human lung fibroblasts; 0.5 µg per test; anti-6xHis tag PE secondary
[10] = molecular target: T1, human DEP1 on the surface of fibroblasts (human); test: flow cytometry on untreated GM21808 fibroblasts; 0.5 µg per test; anti-6xHis tag PE secondary
[11] = molecular target: T1, human DEP1 on the surface of fibroblasts (human); test: flow cytometry on NHLF (normal human lung fibroblasts); 0.5 µg per test; anti-6xHis tag PE secondary
[12] = molecular target: T1, human DEP1 on the surface of fibroblasts (human); test: flow cytometry on GM21808 fibroblasts treated with etoposide; 0.5 µg per test; anti-6xHis tag PE secondary
[13] = molecular target: T2, hDEP1 Peptide #4 (human, also: conjugated to BSA); test: ELISA, soluble scFv produced in microtiter plate
T2 construct: also called hDEP1 Peptide #4/BSA
T2 peptide: ADVLKYTYEDFKKGASDT
Procedure: 96 isolated clones from the second, third and fourth rounds of panning were hand-picked and used to produce the respective soluble scFv in microtiter plate. Each clone was then tested in ELISA against hDEP1 Peptide #4/BSA.

Sequence of human DPP4 on the surface of fibroblasts (human) (P27487 whole entry): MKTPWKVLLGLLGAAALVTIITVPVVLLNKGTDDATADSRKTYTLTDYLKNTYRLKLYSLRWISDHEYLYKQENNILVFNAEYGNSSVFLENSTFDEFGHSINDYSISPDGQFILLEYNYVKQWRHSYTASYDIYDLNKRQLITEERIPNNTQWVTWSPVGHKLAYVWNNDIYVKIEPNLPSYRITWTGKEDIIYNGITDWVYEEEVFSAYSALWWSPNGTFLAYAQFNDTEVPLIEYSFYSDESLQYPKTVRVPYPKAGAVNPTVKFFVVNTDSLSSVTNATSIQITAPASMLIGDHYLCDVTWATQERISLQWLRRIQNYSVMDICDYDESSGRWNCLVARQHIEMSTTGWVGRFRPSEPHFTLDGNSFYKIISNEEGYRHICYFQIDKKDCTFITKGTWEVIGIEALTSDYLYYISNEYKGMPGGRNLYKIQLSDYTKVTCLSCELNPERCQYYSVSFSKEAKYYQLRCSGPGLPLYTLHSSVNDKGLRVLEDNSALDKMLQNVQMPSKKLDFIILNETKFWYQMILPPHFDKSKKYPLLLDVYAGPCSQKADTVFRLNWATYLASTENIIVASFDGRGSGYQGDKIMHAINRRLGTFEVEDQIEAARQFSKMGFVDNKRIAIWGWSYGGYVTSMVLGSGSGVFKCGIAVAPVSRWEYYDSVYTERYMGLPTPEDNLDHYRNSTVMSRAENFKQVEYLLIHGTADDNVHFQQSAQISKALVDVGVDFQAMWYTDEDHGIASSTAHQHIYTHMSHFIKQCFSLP

B3: 5826-13-R3A-D5 (scFv, part only; not given: linker and His-Flag tag, V domains shown, not shown: another chain or arm of the molecule; small tags and cut ends)
VH: EVKLVESGPGLVKPSQSLSLTCSVTGYFITGNYLAWIRKFPGNKMEWIGHIKSSGTTTYNPSLKSRVSITRDTSKNQFFLQLNSVTSEDTATYYCARHGHYVMDVWGQGASVTVSS
VL: DIVLTQSPVLAVSLGQRATISCRASQSVSTSTYNFMHWYQQKPGQQPRLLIYDASHLASSVPARFSGSGSGTDFTLTINPVQADDIATYYCQQSRELPLTFGSGTKLEIK
MFI [1]: 11500
percentage of positive cells [1]: 62.7%
MFI [2]: 581
percentage of positive cells [2]: 0%
MFI [3]: 4060
percentage of positive cells [3]: 10.7%
MFI [4]: 1210
percentage of positive cells [4]: 5.02%
MFI [5]: 1740
percentage of positive cells [5]: 2.02%
MFI [6]: 2730
percentage of positive cells [6]: 16.1%

B4: 5738-10-R3A-D5 (scFv, part only; not given: linker and His-Flag tag, V domains shown, not shown: another chain or arm of the molecule; small tags and cut ends)
VH: EVQLQQSGAELAKPGSSVKISCKASGYTFTSYYISWIKQTTGQGLEYIGYINTGSGGTNYNEKFKGKATLTVDKSSSTAFMQLSSLTPDDSAVYYCARDKWVDWGQGVMVTVSS
VL: DILMTQSPSSMSVSLGDTVTITCRASQDVGIYVNWFQQKPGKPPRRMIYRATNLADGVPSRFSGSRSGSNYSLTIRSLESEDVADYHCLQYDEWPYTFGAGTKLELK
MFI [7]: 3500
percentage of positive cells [7]: 22.3%
MFI [8]: 1040
percentage of positive cells [8]: 4.81%
MFI [9]: 1440
percentage of positive cells [9]: 0.06%
MFI [10]: 632
percentage of positive cells [10]: 0.07%
MFI [11]: 1250
percentage of positive cells [11]: 0.08%
MFI [12]: 1380
percentage of positive cells [12]: 6.57%

B6: 5738-10-R4A-E7 (scFv, V domains shown)
VH: QVQLKQSGVELAKPGSSVKISCKASGYTFTSDSISWIKQTTGQGLEYIGYIHPGSGVTNYNEKFKGKATLTVDKSSSTAFMQLSSLTPDDSAIYYCARYFDYWGQGVMVTVSS
VL: B4 VL with K39I, P43S, M47L, N70D, R76A, W94F, Y96P, A100S, L106I
notes: anti-hDEP1 scFv, rat 10 library, format VH/VL-6xHis-Flag
binding result [13]: binds

B8: 5738-10-R4A-E9 (scFv, V domains shown)
VH: B6 VH with V9A, D32Y, S33Y
VL: B4 VL with L15Q, P43S, Y49H, N70D, R76T, W94Y, Y96P, A100S, K103N, L106I
notes: as for B6
binding result [13]: binds

Continued, values first:

MFI [1]: 16700
percentage of positive cells [1]: 79.5%
MFI [2]: 574
percentage of positive cells [2]: 0.01%
MFI [3]: 10100
percentage of positive cells [3]: 66.5%
MFI [4]: 1940
percentage of positive cells [4]: 8.13%
MFI [5]: 3650
percentage of positive cells [5]: 11%
MFI [6]: 10900
percentage of positive cells [6]: 61.9%
B1: 5826-13-R4A-H5 (scFv, part only; not given: linker and His-Flag tag, V domains shown, not shown: another chain or arm of the molecule; large carriers; small tags and cut ends)
VH: EVQLQQSGAGLTKPGGSVKISCKVSGYTFTTYDIGWLKQRPGQALEWIGSINPGGGGTGYNEKFKGKATLTVDKSSSTAFMQLSSLTPEDTAVYYCARPLRRVLDYWGQGVLVTVSS
VL: DIQLTQSPSSLPASLGERVTISCRASQGISNKLNWYQQKPDGTIKPLIYYTSNLQSGVPSRFSGSGSGTDYSLTISSLEPEDFAMYYCQQDASFPPTFGGGTKLELK

MFI [7]: 5020
percentage of positive cells [7]: 40%
MFI [8]: 891
percentage of positive cells [8]: 4.88%
MFI [9]: 1480
percentage of positive cells [9]: 0.39%
MFI [10]: 980
percentage of positive cells [10]: 2.5%
MFI [11]: 1310
percentage of positive cells [11]: 0.58%
MFI [12]: 2210
percentage of positive cells [12]: 12.5%
B2: 5738-13-R2A-H4 (scFv, part only; not given: linker and His-Flag tag, V domains shown, not shown: another chain or arm of the molecule; small tags and cut ends)
VH: EVKLVESGGGLVQPGRSLKLSCAASGFTFSNYYMAWVRQAPTKGLEWVAYITNGFGSTYYRDSVKGRFTISRDNAKSTLYLQMDSLRSEDTATYYCSTVPLGAFVSWGQGTLVTVSS
VL: DIQMTQTPHSLSASLGETVSIECLASEGISNYLAWYQQKPGKSPQLLISYANPLHDGVPSRFSGSGSGTQFSLKIRNMQPEDEGVYYCQQGYKFPYTFGAGTKLELT

binding result [13]: binds
B5: 5738-10-R4A-G11 (scFv, V domains shown)
VH: QVQLQQPRAELAKPGSSVKISCKASGYTFTNYSISWIKQTTGQGLEYIGYIYPGSGDTNYNEKFKGKATLTVDKSSSTAFMQLSSLTPDDSAVYYCARYFDHWGQGTLVTVSS
VL: B4 VL with P43S, N53T, N70D, R76S, W94Y, Y96P, A100S, L106I
notes: as for B6

binding result [13]: binds
B7: 5738-10-R4A-F12 (scFv, V domains shown)
VH: B6 VH with Q1E, K5Q
VL: B4 VL with P43S, Y49H, N70D, R76S, W94Y, Y96P, A100S, L106I
notes: as for B6

binding result [13]: binds
B9: 5738-10-R4A-G4 (scFv, V domains shown)
VH: B6 VH with Q1E, K5Q, K65R
VL: B4 VL with L3V, P43S, N70D, R76A, W94F, Y96P, A100S, L106I
notes: as for B6
